Test results taken from paper PMC6684648.

Target: human IGF2R extra-cellular domains 1-15 I1572A fused at the C-terminal to rat CD4 (domains 3 + 4), biotin acceptor domain and histidine tag (human) (UniProt P11717)
Assay: SPR; BIAcore T200; about 1800 RU of biotinylated CD4-IGF2R fusion protein immobilised on a CM5 chip loaded with streptavidin; IGF2 256 to 0.125 nM injected for 200 s, 25 °C, 40 μl/min, HBS-EP; 1:1 binding model and steady state analysis

Sequence of human IGF2R extra-cellular domains 1-15 I1572A fused at the C-terminal to rat CD4 (domains 3 + 4), biotin acceptor domain and histidine tag (human) (P11717 41-2304 I1572A): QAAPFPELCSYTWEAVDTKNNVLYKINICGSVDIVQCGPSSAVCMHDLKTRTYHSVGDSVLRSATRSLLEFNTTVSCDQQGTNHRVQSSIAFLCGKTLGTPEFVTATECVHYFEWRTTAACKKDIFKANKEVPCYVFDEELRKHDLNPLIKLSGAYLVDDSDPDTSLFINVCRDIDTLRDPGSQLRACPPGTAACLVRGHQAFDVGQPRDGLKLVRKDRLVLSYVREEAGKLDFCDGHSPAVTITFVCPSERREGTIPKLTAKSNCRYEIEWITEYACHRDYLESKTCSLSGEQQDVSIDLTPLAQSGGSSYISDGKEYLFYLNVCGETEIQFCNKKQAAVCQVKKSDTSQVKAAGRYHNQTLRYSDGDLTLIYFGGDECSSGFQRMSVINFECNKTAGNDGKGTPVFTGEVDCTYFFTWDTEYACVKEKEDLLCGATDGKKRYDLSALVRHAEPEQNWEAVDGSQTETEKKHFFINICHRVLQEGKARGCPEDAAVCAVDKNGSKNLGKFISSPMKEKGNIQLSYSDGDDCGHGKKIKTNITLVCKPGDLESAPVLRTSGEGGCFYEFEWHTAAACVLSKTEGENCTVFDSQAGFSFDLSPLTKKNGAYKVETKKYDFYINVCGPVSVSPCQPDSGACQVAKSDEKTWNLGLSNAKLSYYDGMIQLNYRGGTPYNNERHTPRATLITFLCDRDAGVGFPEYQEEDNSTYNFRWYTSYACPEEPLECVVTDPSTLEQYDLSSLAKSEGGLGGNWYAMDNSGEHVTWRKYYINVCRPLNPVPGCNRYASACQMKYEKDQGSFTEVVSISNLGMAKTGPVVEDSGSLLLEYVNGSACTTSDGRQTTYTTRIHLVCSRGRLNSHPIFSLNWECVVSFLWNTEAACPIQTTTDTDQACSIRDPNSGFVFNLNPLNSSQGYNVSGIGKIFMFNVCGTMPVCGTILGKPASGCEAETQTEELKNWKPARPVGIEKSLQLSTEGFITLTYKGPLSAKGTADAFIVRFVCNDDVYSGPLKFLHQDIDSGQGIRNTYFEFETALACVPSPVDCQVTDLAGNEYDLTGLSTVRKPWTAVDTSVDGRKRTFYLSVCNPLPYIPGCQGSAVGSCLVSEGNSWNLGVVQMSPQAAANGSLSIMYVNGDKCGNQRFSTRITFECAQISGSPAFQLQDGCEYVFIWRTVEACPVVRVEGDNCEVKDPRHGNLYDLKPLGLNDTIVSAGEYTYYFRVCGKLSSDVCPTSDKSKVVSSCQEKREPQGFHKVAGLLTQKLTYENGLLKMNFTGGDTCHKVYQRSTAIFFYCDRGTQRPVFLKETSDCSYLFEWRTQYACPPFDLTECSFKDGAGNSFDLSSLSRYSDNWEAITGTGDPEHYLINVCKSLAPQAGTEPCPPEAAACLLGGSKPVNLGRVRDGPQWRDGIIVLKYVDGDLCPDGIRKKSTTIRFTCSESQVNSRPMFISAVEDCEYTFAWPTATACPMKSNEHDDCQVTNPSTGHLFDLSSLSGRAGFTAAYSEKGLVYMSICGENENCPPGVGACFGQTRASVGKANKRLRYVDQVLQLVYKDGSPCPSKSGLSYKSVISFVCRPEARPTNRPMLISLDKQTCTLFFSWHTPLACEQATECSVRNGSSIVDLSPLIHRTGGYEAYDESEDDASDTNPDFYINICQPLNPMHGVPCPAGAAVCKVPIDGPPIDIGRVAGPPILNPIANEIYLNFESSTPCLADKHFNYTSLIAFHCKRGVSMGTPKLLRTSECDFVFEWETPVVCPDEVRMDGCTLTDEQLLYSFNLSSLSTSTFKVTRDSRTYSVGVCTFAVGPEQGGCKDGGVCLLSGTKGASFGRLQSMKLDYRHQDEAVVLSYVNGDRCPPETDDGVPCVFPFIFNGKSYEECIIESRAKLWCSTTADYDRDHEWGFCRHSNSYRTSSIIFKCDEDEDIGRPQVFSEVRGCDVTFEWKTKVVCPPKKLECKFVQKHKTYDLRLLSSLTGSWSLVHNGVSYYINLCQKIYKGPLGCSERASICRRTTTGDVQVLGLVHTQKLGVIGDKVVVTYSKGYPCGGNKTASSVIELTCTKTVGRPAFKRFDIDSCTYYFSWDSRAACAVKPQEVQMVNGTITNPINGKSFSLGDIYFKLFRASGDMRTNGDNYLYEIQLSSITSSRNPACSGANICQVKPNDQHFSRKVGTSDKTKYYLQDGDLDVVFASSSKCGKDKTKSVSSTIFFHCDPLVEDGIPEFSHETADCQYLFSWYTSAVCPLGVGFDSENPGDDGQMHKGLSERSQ

fold reduction of IGF2 binding against wild type: 100 fold
Substance: human IGF2 (ligand)
